We go through 4 molecules from patent US10328100B2 (Amorphical Ltd., priority 2007, dated 2019).

For one data set, the system named is GAP65 transcript. The data set is described as follows: GAP65 silencing by in vivo injections of GAP65 dsRNA (RNAi) to intermolt crayfish. More on the design: species or system Cherax quadricarinatus. How it is done:
Relative GAP65 transcript levels in the gastrolith epithelial disc following silencing using GAP65 dsRNA were measured using realtime RT-PCR and presented in FIG. 4. GAP65 levels were evaluated in crayfish injected with ecdysone and GAP65 dsRNA, ecdysone and dsRNA carrier, ecdysone and C. quadricarinatus vitellogenin (CqVg) dsRNA, and a control injected with both carriers. CqVg an hepatopancreatic specific gene found mostly in reproductive females, served as a control for sequence specific silencing. […] In the crayfish injected with ecdysone and CqVg dsRNA, GAP65 transcript levels were similar to the levels detected in the ecdysone and dsRNA carrier injected group. In the control carriers injected crayfish GAP65 transcript levels were higher than the levels found in the ecdysone and GAP65 dsRNA injected crayfish but lower than the levels detected in both the ecdysone and dsRNA injected, and the ecdysone CqVg dsRNA injected crayfish.
In order to test the role of GAP65 in gastrolith formation, an RNAi (RNA interference) technique using in vivo injections of GAP65 dsRNA to intermolt crayfish was applied. The initiation of gastrolith formation was achieved by injection of ecdysone. In FIG. 5 gastrolith of crayfish injected with either ecdysone+GAP65 dsRNA, ecdysone+dsRNA carrier, or with carriers of both ecdysone and dsRNA can be seen. FIG. 5A is a lateral view of a representative gastrolith dissected from each treatment group. […] In the control carriers injected the gastrolith appeared undeveloped or in an initial growth stage. […] The control carrier gastrolith was too small to be detected by the X-ray imaging.
Scanning electron microscope (SEM) images of gastroliths dissected from crayfish injected with GAP65 dsRNA and ecdysone, and from crayfish injected only with ecdysone and dsRNA carrier, are presented in FIG. 6. FIG. 6A-B depict images of a cross section through the central part of the gastrolith. […] The dense mineral layered structure observed in the gastrolith of ecdysone and carrier injected is replaced with a loosely packed columnar mineralization structure, which resembles hollow straws, in the gastrolith of ecdysone and GAP65 dsRNA injected crayfish.

The subject of a further data set is GAP10 transcripts. In words: in vivo silencing of GAP10 transcripts during premolt. On the set-up: species or system C. quadricarinatus. On the procedure:
In order to examine the effect of in vivo silencing of GAP10 transcripts during premolt, intermolt males (MMI=0), each weighing 5-10 g were divided to four groups. Ten animals were injected daily with both ecdysone, and dsRNA of GAP 10; eight were injected with ecdysone; six were injected with both ecdysone and dsRNA of CqVg; and four were injected with ecdysone carrier only, i.e., 10% ethanol in Diethyl pyrocarbonate-treated doubly distilled water. Injections were given into the sinus of the first abdominal segment. For each individual crayfish the experiment was terminated at MMI=0.1, at which time the animal was anesthetized and its gastroliths were dissected out. Premolt duration was defined as the number of days until termination. […] Another group was injected with ecdysone and CqVg dsRNA (a hepatopancreatic-specific gene found mostly in reproductive females) and served as a control for sequence-specific silencing.
For analysis of the gastrolith surface roughness, optical phase interference microscopy (OPIM) analysis was used, providing topographic images of representative surface samples from each group (FIG. 37B).

The subject of a further data set is C. quadricarinatus. The note with it: cited from earlier work.
Data set [1] is described as follows: in vitro calcium carbonate precipitation assay testing the stabilization of ACC. Format: physicochemical. The settings on record: for form of calcium carbonate precipitated in the presence of the additive: in vitro precipitation from calcium salt and carbonate. The text has this: Analysis of the product may comprise testing the resultant CaCO3 by various methods (as XRD, electron diffraction, SEM) to verify its amorphous nature. […] The phosphate peak at 950 cm^−1, is proportional to the phosphate content in the sample. Yet, the ratio between 1080 to 950 cm^−1 is proportional, but not directly indicative of the CO3^2−/[…] ratio.
FIG. 7 presents precipitation results of calcium carbonate in the presence of GAP65 and in the presence of other protein (trypsin). SEM images in FIG. 7A indicate the distinct polymorph of calcium carbonate in each treatment.
(§1) 100 μl of 1M CaCl2 was added to 10 ml double distilled water (final concentration: 10 mM). 80 μl from the protein extraction solution (1.2 μg/μl) were added (final concentration ˜10 μg/ml), 100 μl of 1M Na2CO3 (final concentration: 10 mM) was added following an intensive shaking. The vial was centrifuged for 5 min at 4000 rpm, the precipitate was smeared over a glass slide and instantly dried with air flow. […] The observations were confirmed by Raman spectroscopy.
100 μl of 1M CaCl2 were added to 10 ml double-distilled water (DDW), attaining the final concentration of […]. 200 μl of P-serine (P-Ser) solution (100 mM) were added to the solution, attaining 2 mM of P-Ser. 100 μl of 1M Na2CO3 (final concentration: 10 mM) were added following an intensive shaking. The vial was centrifuged for 5 min at 4000 rpm at room temperature. The upper solution was removed and the precipitation was smeared over a glass slide and instantly dried by air flow.

Data set [2] can be described thus: stability of ACC held at room temperature, tested by Raman spectroscopy. The data set is classed as physicochemical. On the procedure:
The precipitated calcium carbonate was checked over long periods for the amorphous/crystalline state.
as §1

Data set [3] can be described thus: calcium binding on nitrocellulose membrane after SDS-PAGE. The settings on record: gastrolith protein fraction transferred to nitrocellulose membrane. On the procedure:
FIGS. 33A-B. relate to the identification of GAP10 and characterization of its phosphorylation and calcium-binding properties; FIG. 33A, left: SDS-PAGE stained with Coomassie blue; middle: Staining of the same gel for phosphoproteins; right: transfer of the same fraction to a nitrocellulose membrane and incubation with […]. Spots identified as GAP10 by LC-MS are circled. Abbreviations: PC (positive control).
(§2) Proteins that were both phosphorylated and calcium-binding were prepared for LC-MS. Two of them, migrating at apparent molecular masses of ˜9 and ˜11 kDa (circled), were identified as GAP10 (FIG. 33B), and their pIs were calculated as 5 and 5.5, respectively. Since GAP10 has a mildly acidic pI, it is negatively charged at the pH of the gastrolith pouch, which is approximately 8.7.

Data set [4] is described as follows: isoelectric focusing then SDS-PAGE of gastrolith protein fraction. The data set is classed as physicochemical. The note with it: two spots of ~9 and ~11 kDa identified as GAP10, respectively. On the procedure:
as §2

Several values for one entry are separate records, joined by “and”; a condition that tells them apart may be missing. Identical values can stand only once. Entries after “also recorded” stand apart in the source; their conditions may differ.

In the case of `C[C@H]([C@H](O)CCC(C)(C)O)[C@H]1CC[C@@]2(O)C3=CC(=O)[C@@H]4C[C@@H](O)[C@@H](O)C[C@]4(C)[C@H]3CC[C@]12C` [ecdysone], the gastrolith spherule size in the data set on GAP65 transcript (SEM x15000) is 40-60 nm. Moreover, the “gastrolith structure by SEM” value in the data set with GAP65 transcript (cross section through central part of gastrolith) is given as “normal gastrolith appearance”. Also, the gastrolith morphology result in the data set on GAP65 transcript (dissected gastrolith, lateral view, gastrolith formation initiated by ecdysone) was “normal with no deformities”. Besides, in the data set with GAP65 transcript (dorsal X-ray view prior to dissection), the “gastrolith mineral density by X-ray imaging” value is reported as “normal with no effects on mineral densities”. Moreover, in the data set on GAP10 transcripts (OPIM topographic images), the “Swedish height (SH) of gastrolith surface” value is reported as 4.4±0.5 μm. For the same molecule, the “average premolt duration (number of days until reaching MMI=0.1)” value in the data set with GAP10 transcripts (repeated daily injections to intermolt males, dsRNA given together with ecdysone) is 10.1 days. For the same molecule, the gastrolith surface appearance result in the data set with GAP10 transcripts (top view of dissected gastroliths) is listed as “fairly smooth”. The “typical induced premolt duration until ecdysis” value in the data set with C. quadricarinatus (known for ecdysone administration) was 10 to 14 days. Further, the “peak observed molt mineralization index (MMI)” value in the data set with C. quadricarinatus (reached 1-2 days before the molt event) was 0.125-0.145.

B1: GAP65: Negatively charged glycoprotein of about 65 kDa from Cherax quadricarinatus gastrolith, SEQ ID NO. 1; used as enriched DEAE fraction 17 (protein, listed as Cherax quadricarinatus)
chain: MIRRVTTPLLALLLAGWVVAQTTDMDPEQYCARRDDEYFRKDFGDPAEFASDYRANCGVYYRCVPAPAGKRSISASQCQSELFFDVQQQICERKSKVTNCEQIDKEHPPQPFWPLREGEESQCKSGEIMCGSGECLPQHRFCDENSDCADGSDENICTPDKDPNRADVCEPRTCLWSQGCFCSVDGTRIPGDLTVDQTPQMITITFTGAINERNFRIFQDVFKDTVKHKGNDCTPKGTFFISHGFSNYSAIQELNRVGHEIAVSSITNNDNPDYWSKLSALDYEAEMDGARLIIEKFANITANEVLGIRVPKQRVGGNRQFRMMVDWGFLYDSSISAPMGRLPLWPYTLMHRMPHKCLGNDQNCPSQNFTVWEMVINEMDRRDDPQFDERLTGCHFVDQCANIQSPEQFRAFLDNNLARHYRTNRAPLGLHFTSGYFETRRDFLREFVKWVRETALSGDYFFVTMQQVINWMEAPTELTAINNFQEWKGKCEVKGQPYCSLPNPCPKKVPRIFPNEEEMFLYTCMECPNTYPWLGDPHGNGFLDIPDF
B1: the “ACC share of the total CaCO3” value in data set [1] (10 mM CaCl2, 10 mM Na2CO3, ~10 μg/ml protein, estimated) was “at least 50%”. In addition, in data set [1] (after precipitation and drying, broad peak about 1080 cm^-1 indicates ACC), the “Raman spectroscopy (RS) of the CaCO3 precipitate” value is reported as “distinct spectra of ACC”. For the same molecule, the “form of calcium carbonate precipitated in the presence of the additive” value in data set [1] (SEM) was “amorphous CaCO3; also recorded: amorphous form (ACC)”. The “CaCO3 deposits characterized by polarized microscope” value in data set [1] (precipitation in the presence of GAP65, confirmed by Raman spectroscopy) is “mixture of calcite, vaterite, and ACC”. Moreover, the “Raman spectra (around the 1085 peak) compared with calcite” value in data set [2] (6.5-month old ACC, room temperature) was “mixture seemingly comprising ACC and vaterite”. Moreover, the “nanosphere size of ACC” value in data set [2] (SEM 40 days after the precipitation) is recorded as 50-500 nm. In addition, in data set [2] (room temperature, Raman spectra), the “time the ACC remained stable (amorphous state kept)” value was “at least 1 months”.

B2: trypsin: Other (inert) protein used in equivalent amount as control in the precipitation assay (protein, UniProt P00760 24-246, looked up)
Serine protease 1: IVGGYTCGANTVPYQVSLNSGYHFCGGSLINSQWVVSAAHCYKSGIQVRLGEDNINVVEGNEQFISASKSIVHPSYNSNTLNNDIMLIKLKSAASLNSRVASISLPTSCASAGTQCLISGWGNTKSSGTSYPDVLKCLKAPILSDSSCKSAYPGQITSNMFCAGYLEGGKDSCQGDSGGPVVCSGKLQGIVSWGSGCAQKNKPGVYTKVCNYVSWIKQTIASN
Turning to B2, in data set [1] (SEM), the “form of calcium carbonate precipitated in the presence of the additive” value was “rapid crystallization”. In addition, in data set [1] (same conditions, control protein, SEM), the “size of calcium carbonate crystals formed” value was 10 μm.

B3: GAP10: Gastrolith protein of Cherax quadricarinatus, calculated 10 kDa, SEQ ID NO. 24 (fragment SEQ ID NO. 25) (protein, listed as Cherax quadricarinatus)
chain: MKIFILLVVIGVVSAQLGAGQVGGAAPAQGAGGAAGVGGPGAAPVNPYGPKVYGSGLNNPFAFPHNTWEVSRAAAVAATNPNLYVRVESDGGWEFTNRFGEKVDVYNSFGQELD
Consider B3, for which, in data set [3], the calcium binding result is recorded as “calcium-binding ability”. In addition, the pI in data set [4] was 5 and 5.5.
